Results from paper PMC7780100.

Test: 55Fe efflux after 10 µM hepcidin pretreatment, oocytes
Details: glycan lost; control: wild-type mouse Fpn

B1: mouse ferroportin (Fpn): N437D (protein)
parent chain: MTKARDQTHQEGCCGSLANYLTSAKFLLYLGHSLSTWGDRMWHFAVSVFLVELYGNSLLLTAVYGLVVAGSVLVLGAIIGDWVDKNARLKVAQTSLVVQNVSVILCGIILMMVFLHKNELLTMYHGWVLTVCYILIITIANIANLASTATAITIQRDWIVVVAGENRSRLADMNATIRRIDQLTNILAPMAVGQIMTFGSPVIGCGFISGWNLVSMCVEYFLLWKVYQKTPALAVKAALKVEESELKQLTSPKDTEPKPLEGTHLMGEKDSNIRELECEQEPTCASQMAEPFRTFRDGWVSYYNQPVFLAGMGLAFLYMTVLGFDCITTGYAYTQGLSGSILSILMGASAITGIMGTVAFTWLRRKCGLVRTGLFSGLAQLSCLILCVISVFMPGSPLDLSVSPFEDIRSRFVNVEPVSPTTKIPETVFTTEMHMSNMSNVHEMSTKPIPIVSVSLLFAGVIAARIGLWSFDLTVTQLLQENVIESERGIINGVQNSMNYLLDLLHFIMVILAPNPEAFGLLVLISVSFVAMGHLMYFRFAQKTLGNQIFVCGPDEKEVTDENQPNTSVV
For B1, the “other: hepcidin inhibition of transport” value was “no change”.
